Results: doi:10.1101/2021.04.26.441533 (bioRxiv, 2021)

Assays:
Assay in all cases: single-molecule magnetic tweezers
[1] = target: T1, Full-length vinculin (FL-vinculin) (UniProt P18206-2 1-1066)
T1 sequence (looked up): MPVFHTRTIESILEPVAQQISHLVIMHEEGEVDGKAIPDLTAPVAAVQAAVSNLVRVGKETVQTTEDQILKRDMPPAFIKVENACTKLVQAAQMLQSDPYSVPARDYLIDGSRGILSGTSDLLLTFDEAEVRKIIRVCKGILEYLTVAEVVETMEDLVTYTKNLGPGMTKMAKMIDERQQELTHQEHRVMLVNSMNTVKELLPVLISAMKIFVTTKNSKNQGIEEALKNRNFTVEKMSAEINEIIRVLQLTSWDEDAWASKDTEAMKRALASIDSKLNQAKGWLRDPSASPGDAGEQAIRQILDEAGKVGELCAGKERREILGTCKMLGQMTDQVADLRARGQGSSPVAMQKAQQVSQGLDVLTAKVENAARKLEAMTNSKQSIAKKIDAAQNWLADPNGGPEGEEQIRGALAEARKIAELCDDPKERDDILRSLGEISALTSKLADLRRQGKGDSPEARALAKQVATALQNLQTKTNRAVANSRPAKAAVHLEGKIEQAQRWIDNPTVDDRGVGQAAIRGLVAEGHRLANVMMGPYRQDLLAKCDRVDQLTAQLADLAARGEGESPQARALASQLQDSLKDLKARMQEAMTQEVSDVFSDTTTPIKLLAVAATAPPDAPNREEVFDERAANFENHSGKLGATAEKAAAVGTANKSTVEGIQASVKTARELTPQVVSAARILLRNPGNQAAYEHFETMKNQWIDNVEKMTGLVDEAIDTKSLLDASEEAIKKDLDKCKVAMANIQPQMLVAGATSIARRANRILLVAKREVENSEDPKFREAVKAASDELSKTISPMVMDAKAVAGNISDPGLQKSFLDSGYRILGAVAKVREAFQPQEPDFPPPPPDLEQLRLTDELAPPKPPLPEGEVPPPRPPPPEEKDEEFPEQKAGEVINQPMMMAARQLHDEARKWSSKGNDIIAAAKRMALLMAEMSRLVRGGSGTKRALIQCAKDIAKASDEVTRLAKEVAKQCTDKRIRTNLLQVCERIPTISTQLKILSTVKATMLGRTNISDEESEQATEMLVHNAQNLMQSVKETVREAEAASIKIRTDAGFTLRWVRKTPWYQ

[2] = target: T2, vinculin T12 mutant (UniProt P18206-2 1-1066, D974A | K975A | R976A | R978A)
T2 sequence (looked up): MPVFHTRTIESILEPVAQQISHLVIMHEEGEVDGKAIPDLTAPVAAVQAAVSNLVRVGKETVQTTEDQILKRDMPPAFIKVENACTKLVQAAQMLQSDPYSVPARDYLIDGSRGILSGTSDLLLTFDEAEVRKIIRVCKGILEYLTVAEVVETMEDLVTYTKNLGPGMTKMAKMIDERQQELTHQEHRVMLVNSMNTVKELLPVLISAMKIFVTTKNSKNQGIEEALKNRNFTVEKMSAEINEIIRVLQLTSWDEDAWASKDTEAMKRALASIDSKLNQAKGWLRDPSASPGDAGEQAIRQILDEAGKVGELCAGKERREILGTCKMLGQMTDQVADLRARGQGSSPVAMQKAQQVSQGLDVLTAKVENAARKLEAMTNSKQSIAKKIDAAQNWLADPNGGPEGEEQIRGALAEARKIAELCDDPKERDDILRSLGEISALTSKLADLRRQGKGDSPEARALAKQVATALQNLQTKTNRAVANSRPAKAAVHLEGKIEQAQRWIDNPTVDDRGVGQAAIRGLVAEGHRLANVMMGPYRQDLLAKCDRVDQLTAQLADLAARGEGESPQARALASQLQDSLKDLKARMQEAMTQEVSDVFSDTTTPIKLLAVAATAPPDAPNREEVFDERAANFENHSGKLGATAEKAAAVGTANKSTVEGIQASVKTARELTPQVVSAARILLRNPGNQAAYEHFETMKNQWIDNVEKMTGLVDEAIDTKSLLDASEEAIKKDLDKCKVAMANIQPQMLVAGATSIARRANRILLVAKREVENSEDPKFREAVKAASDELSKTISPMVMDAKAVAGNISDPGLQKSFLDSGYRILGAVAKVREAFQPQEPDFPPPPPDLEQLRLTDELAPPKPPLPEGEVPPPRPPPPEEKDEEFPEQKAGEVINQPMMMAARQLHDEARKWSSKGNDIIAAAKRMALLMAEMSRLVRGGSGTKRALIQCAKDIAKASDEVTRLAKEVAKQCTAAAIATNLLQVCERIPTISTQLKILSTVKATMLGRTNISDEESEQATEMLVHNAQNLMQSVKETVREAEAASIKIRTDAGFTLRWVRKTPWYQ

[3] = target: T3, vinculin head (D1-D4) (UniProt P18206-2 1-835)
T3 sequence (looked up): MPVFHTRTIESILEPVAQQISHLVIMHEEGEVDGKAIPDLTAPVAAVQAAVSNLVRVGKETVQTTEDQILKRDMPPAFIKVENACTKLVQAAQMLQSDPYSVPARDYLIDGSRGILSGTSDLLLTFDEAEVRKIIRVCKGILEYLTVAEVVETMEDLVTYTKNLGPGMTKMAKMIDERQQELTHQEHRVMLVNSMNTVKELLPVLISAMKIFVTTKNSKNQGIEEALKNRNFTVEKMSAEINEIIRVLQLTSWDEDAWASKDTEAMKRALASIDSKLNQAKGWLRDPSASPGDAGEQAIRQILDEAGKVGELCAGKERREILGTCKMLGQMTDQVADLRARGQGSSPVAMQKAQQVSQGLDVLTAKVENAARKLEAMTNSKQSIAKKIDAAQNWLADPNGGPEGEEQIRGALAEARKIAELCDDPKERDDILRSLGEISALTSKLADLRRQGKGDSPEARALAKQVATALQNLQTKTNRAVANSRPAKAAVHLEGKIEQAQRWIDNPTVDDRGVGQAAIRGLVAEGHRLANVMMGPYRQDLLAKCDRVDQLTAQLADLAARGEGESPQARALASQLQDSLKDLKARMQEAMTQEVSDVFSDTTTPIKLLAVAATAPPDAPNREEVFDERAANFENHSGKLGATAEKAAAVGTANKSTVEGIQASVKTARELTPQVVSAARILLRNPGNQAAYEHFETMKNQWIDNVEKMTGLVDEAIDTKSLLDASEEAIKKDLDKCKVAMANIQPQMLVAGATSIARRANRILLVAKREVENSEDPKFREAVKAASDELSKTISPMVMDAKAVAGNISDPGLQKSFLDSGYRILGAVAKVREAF

B1: talin R4-R6 domains (stretchable talin R4-R6 fragment) (domain or fragment, UniProt P26039 913-1357, looked up)
chain: LVQRLEHAAKQAAASATQTIAAAQHAASAPKASAGPQPLLVQSCKAVAEQIPLLVQGVRGSQAQPDSPSAQLALIAASQSFLQPGGKMVAAAKASVPTIQDQASAMQLSQCAKNLGTALAELRTAAQKAQEACGPLEMDSALSVVQNLEKDLQEIKAAARDGKLKPLPGETMEKCTQDLGNSTKAVSSAIAKLLGEIAQGNENYAGIAARDVAGGLRSLAQAARGVAALTSDPAVQAIVLDTASDVLDKASSLIEEAKKASGHPGDPESQQRLAQVAKAVTQALNRCVSCLPGQRDVDNALRAVGDASKRLLSDSLPPSTGTFQEAQSRLNEAAAGLNQAATELVQASRGTPQDLARASGRFGQDFSTFLEAGVEMAGQAPSQEDRAQVVSNLKGISMSSSKLLLAAKALSTDPASPNLKSQLAAAARAVTDSINQLITMCTQQA
modifications: N-terminus linked to a superparamagnetic bead through a 572-bp double strand DNA linker
- koff [1]: 0.014 s⁻¹
- kon [1]: 1e+06 M⁻¹ s⁻¹
- Kd [2]: 1.9 nM
- koff [2]: 0.021 s⁻¹
- kon [2]: 1.1e+07 M⁻¹ s⁻¹
- Kd [3]: 0.6 nM
- koff [3]: 0.0022 s⁻¹
- kon [3]: 3.7e+06 M⁻¹ s⁻¹
